Assay results reported in patent US20050227220A1, “Compositions and Methods for Evaluating and Designing Nuclear Receptor Ligands that Modulate Co-Regulator Affinity” (priority 2002, published 2005).
No end group written: not given here. fluorescein = fluorescein: fluorescein label attached at the N-terminus of the peptide

B1: Fluoroscein-NCOR ID-C peptide (NCoR amino acids 2251-2275) (peptide)
peptide: fluorescein-GHSFADPASNLGLEDIIRKALMGSF
notes: also called NCOR peptide; NCoR 2251-2275
B3: human PPARδ ligand binding domain (amino acids 139-441) (receptor)
chain: MKKGHHHHHHGSHNAIRFGRMPEAEKRKLVAGLTANEGSQYNPQVADLKAFSKHIYNAYLKNFNMTKKKARSILTGKASHTAPFVIHDIETLWQAEKGLVWKQLVNGLPPYKEISVHVFYRCQCTTVETVRELTEFAKSIPSFSSLFLNDQVTLLKYGVHEAIFAMLASIVNKDGLLVANGSGFVTREFLRSLRKPFSDIIEPKFEFAVKFNALELDDSDLALFIAAIILCGDRPGLMNVPRVEAIQDTILRALEFHLQANHPDAQYLFPKLLQKMADLRQLVTEHAQMMQRIKKTETETSLHPLLQEIYKDMY
modifications: Biotinylated (site not stated) in the FRET assays; unlabelled in fluorescence polarization and SPR.
notes: placed at the N-terminus here; Biotinylated for FRET; also called PPARδ LBD
B4: RXRα ligand binding domain (amino acids 225-462) (receptor, UniProt P19793 225-462, looked up)
chain: SANEDMPVERILEAELAVEPKTETYVEANMGLNPSSPNDPVTNICQAADKQLFTLVEWAKRIPHFSELPLDDQVILLRAGWNELLIASFSHRSIAVKDGILLATGLHVHRNSAHSAGVGAIFDRVLTELVSKMRDMQMDKTELGCLRAIVLFNPDSKGLSNPAEVEALREKVYASLEAYCKHKYPEQPGRFAKLLLRLPALRSIGLKCLEHLFFFKLIGDTPIDTFLMEMLEAPHQMT
notes: range 225-462; Biotinylated for FRET; also called RXRα LBD; not shown: His-tag
B5: human PPARγ ligand binding domain (amino acids 206-477) (receptor)
chain: MKKGHHHHHHGPESADLRALAKHLYDSYIKSFPLTKAKARAILTGKTTDKSPFVIYDMNSLMMGEDKIKFKHITPLQEQSKEVAIRIFQGCQFRSVEAVQEITEYAKSIPGFVNLDLNDQVTLLKYGVHEIIYTMLASLMNKDGVLISEGQGFMTREFLKSLRKPFGDFMEPKFEFAVKFNALELDDSDLAIFIAVIILSGDRPGLLNVKPIEDIQDNLLQALELQLKLNHPESSQLFAKLLQKMTDLRQIVTEHVQLLQVIKKTETDMSLHPLLQEIYKDLY
notes: range 206-477; placed at the N-terminus here; Biotinylated for FRET; also called PPARγ LBD

Tests used:
[1] = target: T1, TRβ ligand binding domain (UniProt P10828 202-461, limits assumed); test: fluorescence polarization, apparent affinity, with T3
T1 construct: also called Thyroid Receptor LBD; TRβ LBD
T1 sequence (looked up): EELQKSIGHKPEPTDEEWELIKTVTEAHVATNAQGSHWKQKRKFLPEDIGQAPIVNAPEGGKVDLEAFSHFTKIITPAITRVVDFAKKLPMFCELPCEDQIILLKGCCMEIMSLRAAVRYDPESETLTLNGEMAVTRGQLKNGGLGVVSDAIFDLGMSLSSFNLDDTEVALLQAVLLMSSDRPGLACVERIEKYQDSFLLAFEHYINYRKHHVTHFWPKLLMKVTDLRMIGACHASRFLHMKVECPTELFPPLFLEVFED

[2] = target: B3; test: fluorescence polarization, apparent affinity, with GW1929
[3] = target: B5; test: as above
[4] = target: B3; test: fluorescence polarization, apparent affinity, with rosiglitazone
[5] = target: B5; test: as above
[6] = target: B3; test: fluorescence polarization, 10 nM fluorescein peptide, LBD titrated, no ligand
[7] = target: T2, RARα ligand binding domain (amino acids 146-432) (UniProt P10276 146-432); test: as above
T2 construct: range 146-432; not shown: His-tag
T2 sequence (looked up): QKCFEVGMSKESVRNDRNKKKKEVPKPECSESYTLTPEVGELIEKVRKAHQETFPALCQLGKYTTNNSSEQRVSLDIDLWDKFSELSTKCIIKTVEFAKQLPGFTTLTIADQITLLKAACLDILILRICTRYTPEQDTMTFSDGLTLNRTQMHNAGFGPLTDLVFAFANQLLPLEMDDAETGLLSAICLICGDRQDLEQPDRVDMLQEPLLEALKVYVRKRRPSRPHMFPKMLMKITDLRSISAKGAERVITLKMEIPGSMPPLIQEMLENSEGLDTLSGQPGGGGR

[8] = target: T3, ERβ ligand binding domain (amino acids 257-530) (UniProt Q92731 257-530); test: as above
T3 construct: range 257-530; not shown: His-tag

[9] = target: B5; test: as above
[10] = target: T4, human PPARα ligand binding domain (amino acids 192-468) (human, UniProt Q07869 192-468); test: as above
T4 construct: range 192-468; placed at the N-terminus here; Biotinylated for FRET; also called PPARα LBD
T4 sequence: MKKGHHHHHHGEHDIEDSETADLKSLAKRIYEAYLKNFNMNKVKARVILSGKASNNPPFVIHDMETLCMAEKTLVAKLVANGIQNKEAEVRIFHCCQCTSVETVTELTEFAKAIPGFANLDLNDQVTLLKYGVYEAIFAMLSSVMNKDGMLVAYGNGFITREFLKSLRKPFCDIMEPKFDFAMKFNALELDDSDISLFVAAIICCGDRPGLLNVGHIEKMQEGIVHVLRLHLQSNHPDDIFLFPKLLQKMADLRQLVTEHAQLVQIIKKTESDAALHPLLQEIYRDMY

[11] = target: T1, TRβ ligand binding domain; test: as above
[12] = target: B4; test: as above
[13] = target: B5; test: fluorescence polarization, apparent affinity, no ligand
[14] = target: T1, TRβ ligand binding domain; test: as above
GAL4-NcoR (1944-end) = target: T5, GAL4-NcoR (1944-end) (UniProt P04386 1-147; O75376 1944-2440); test: mammalian two-hybrid in CV-1 cells
T5 construct: range 1-147;range 1944-end; Two-hybrid construct; also called larger fragment of NCoR (1944-end)

[15] = target: T6, biotin-NCOR ID-C peptide (NCoR amino acids 2251-2275) (N-terminal biotin); test: FRET, with GW1929
T6 construct: also called NCOR-derived co-repressor peptide
T6 peptide: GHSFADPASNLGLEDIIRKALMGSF

[16] = target: T6, biotin-NCOR ID-C peptide (NCoR amino …); test: FRET, with GW7845
[17] = target: B1; test: fluorescence polarization, with GW1929
[18] = target: B3; test: FRET, biotinylated PPAR LBD and RXRα LBD on labelled streptavidin
[19] = target: B5; test: as above
[20] = target: T4, human PPARα ligand binding domain …; test: as above
[21] = target: T7, TRAP220 peptide (amino acids 575-599) (not fully specified; printed as N-terminal biotin in Example 1; label in the polarization assay not specified); test: fluorescence polarization, with rosiglitazone
T7 construct: also called TRAP220 575-599
T7 peptide: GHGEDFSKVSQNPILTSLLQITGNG

[22] = target: B1; test: fluorescence polarization, with rosiglitazone
[23] = target: T7, TRAP220 peptide (amino acids 575-599); test: fluorescence polarization, with GW1929

T3 sequence (Q92731 257-530 limits assumed): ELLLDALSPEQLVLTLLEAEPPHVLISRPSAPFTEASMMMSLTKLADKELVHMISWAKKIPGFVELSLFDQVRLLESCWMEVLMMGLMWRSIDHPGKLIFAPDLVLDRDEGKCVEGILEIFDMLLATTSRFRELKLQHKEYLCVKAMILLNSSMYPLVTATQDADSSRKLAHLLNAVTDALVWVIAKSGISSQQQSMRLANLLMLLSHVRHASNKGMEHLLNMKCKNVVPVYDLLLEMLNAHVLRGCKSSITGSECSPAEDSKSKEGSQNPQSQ

B1
Kd [1]: 6.2 µM
Kd [2]: 0.44 µM
Kd [3]: 6.7 µM
Kd [4]: 5 µM
Kd [5]: 4.7 µM
Kd [6]: 5.7 µM
Kd [7]: 2 µM
Kd [8]: 37 µM
Kd [9]: 1.3 µM
Kd [10]: 6.1 µM
Kd [11]: 1.3 µM
Kd [12]: 25 µM
Kd [13]: 1.2 µM
Kd [14]: 0.72 µM

B2: VP16-human PPARα (full length) (other)
chain: LSTAPPTDVSLGDELHLDGEDVAMAHADALDDFDLDMLGDGDSPGPGFTPHDSAPYGALDMADFEFEQMFTDALGIDEYGGMVDTESPLCPLSPLEAGDLESPLSEEFLQEMGNIQEISQSIGEDSSGSFGFTEYQYLGSCPGSDGSVITDTLSPASSPSSVTYPVVPGSVDESPSGALNIECRICGDKASGYHYGVHACEGCKGFFRRTIRLKLVYDKCDRSCKIQKKNRNKCQYCRFHKCLSVGMSHNAIRFGRMPRSEKAKLKAEILTCEHDIEDSETADLKSLAKRIYEAYLKNFNMNKVKARVILSGKASNNPPFVIHDMETLCMAEKTLVAKLVANGIQNKEAEVRIFHCCQCTSVETVTELTEFAKAIPGFANLDLNDQVTLLKYGVYEAIFAMLSSVMNKDGMLVAYGNGFITREFLKSLRKPFCDIMEPKFDFAMKFNALELDDSDISLFVAAIICCGDRPGLLNVGHIEKMQEGIVHVLRLHLQSNHPDDIFLFPKLLQKMADLRQLVTEHAQLVQIIKKTESDAALHPLLQEIYRDMY
notes: also called VP16 full length PPARα
binding result (GAL4-NcoR (1944-end)): binds

B3
log α (ratio of cofactor affinities with and without saturating ligand) [15]: 0.52
log α (ratio of cofactor affinities with and without saturating ligand) [16]: 0.14
fold increase in affinity with GW1929 against no ligand [17]: 12 fold

B4
binding result [18]: binds
binding result [19]: binds
binding result [20]: binds

B5
fold increase in affinity with rosiglitazone against no ligand [21]: ~3 fold
fold decrease in affinity with rosiglitazone against no ligand [22]: ~4 fold
fold increase in affinity with GW1929 against no ligand [23]: 5 fold
fold decrease in affinity with GW1929 against no ligand [17]: 5 fold
